Source: US20120114595A1 (OTSUKA CHEMICAL, published 2012)

How the values were obtained:
[1] = target: T1, AILIM ligand B7-H2/Fc Chimera (R&D Systems, Inc.), biotinylated (UniProt O75144 19-258, biotinylated using EZ-Link NHS-PEO Solid Phase Biotinylation Kit (sites not given)); test: ELISA, coated synthetic AILIM (lot a, 0.06684 nmol/ml) against coated ICOS/Fc as reference, biotinylated B7-H2/Fc
T1 construct: Bought reagent; also called B7RP-1; Fc part of the bought chimera not given
T1 sequence (looked up): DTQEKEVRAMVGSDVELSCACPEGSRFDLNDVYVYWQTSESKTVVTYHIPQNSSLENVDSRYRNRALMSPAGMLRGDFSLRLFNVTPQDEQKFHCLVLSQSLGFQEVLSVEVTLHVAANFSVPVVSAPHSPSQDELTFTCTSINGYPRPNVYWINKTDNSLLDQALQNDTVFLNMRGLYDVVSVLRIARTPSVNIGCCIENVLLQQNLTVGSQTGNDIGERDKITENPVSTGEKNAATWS
Procedure: (§1) Dilution series of each evaluation sample solution of synthetic AILIM were added to an ELISA plate, and each well was coated therewith by reaction at 37° C. for 2 hours. After the reaction, the sample solution was discarded, D-PBS (−) containing 0.4% bovine serum albumin and 0.05% Tween 20 (blocking solution) was added at a concentration of 150 μL/well, and each well was blocked by reaction at 37° C. for 1 hour. The plate thus blocked was washed 3 times with D-PBS (−) containing 0.1% bovine serum albumin and 0.05% Tween 20 (washing buffer). An AILIM ligand B7-H2/Fc Chimera (R&D Systems, Inc.) biotinylated using EZ-Link NHS-PEO Solid Phase Biotinylation Kit was added at a concentration of 200 ng/50 μL/well and reacted at 37° C. for 1.5 hours. Unreacted ligand molecules were removed by washing 3 times with the washing buffer.
(§2) Subsequently, streptavidin-labeled horseradish peroxidase (BD-Pharmingen) diluted 1000-fold with D-PBS (−) containing 0.1% bovine serum albumin was added at a concentration of 100 μL/well and reacted at 37° C. for 1 hour. After the reaction, the plate was washed with 3 times with the washing buffer to remove unreacted streptavidin-labeled horseradish peroxidase. […] The reaction was terminated by the addition of 1% SDS at a concentration of 100 μL/well, and the OD value at 405 nm was measured using a plate reader (VersaMax, Molecular Devices, LLC). […]

[2] = target: T1, AILIM ligand B7-H2/Fc Chimera (R&D …); test: ELISA, coated synthetic AILIM (lot a, 0.004178 nmol/ml) against coated ICOS/Fc as reference, biotinylated B7-H2/Fc
Procedure: as §1, §2

[3] = target: T1, AILIM ligand B7-H2/Fc Chimera (R&D …); test: ELISA, coated synthetic AILIM against coated ICOS/Fc as reference, biotinylated B7-H2/Fc
Procedure: as §1, §2

[4] = target: T1, AILIM ligand B7-H2/Fc Chimera (R&D …); test: ELISA, coated synthetic AILIM (lot a, 0.01671 nmol/ml) against coated ICOS/Fc as reference, biotinylated B7-H2/Fc
Procedure: as §1, §2

B1: oligosaccharide chain-added extracellular domain of AILIM (synthetic AILIM), 120-amino acid extracellular domain of human AILIM with an asialo-nonasaccharide … (receptor)
chain: EINGSANYEMFIFHNGGVQILCKYPDIVQQFKMQLLKGGQILCDLTKTKGSGNTVSIKSLKFCHSQLSNNSVSFFLYNLDHSHANYYFCNLSIFDPPPFKVTLTGGYLHIYESQLCCQLK
modifications: asialo-nonasaccharide chain on Asn at position 69 (residue 89 by counting from the N-terminal Met of AILIM); no oligosaccharide chain at positions 3 and 90
notes: Made by chemical synthesis (Fmoc solid phase, KCL/NCL ligation), Acm groups removed, folded by dialysis in two dialysis tubes (lot a and lot b); Coated on the ELISA plate in the assays; also called synthetic AILIM lot. a; synthetic AILIM lot. b
B/A (ICOS/Fc concentration for the same absorbance over synthetic AILIM concentration) [1]: 11.4 fold | B/A (ICOS/Fc concentration for the same absorbance over synthetic AILIM concentration) [2]: 8.88 fold | fold ICOS/Fc concentration required for equivalent ligand binding activity [3]: ~10 fold | B/A (ICOS/Fc concentration for the same absorbance over synthetic AILIM concentration) [4]: 6.05 fold
